Reference: patent publication US20220233705A1, “COMBINED THERAPIES OF ACTIVATABLE IMMUNE CHECKPOINT INHIBITORS AND CONJUGATED ACTIVATABLE ANTIBODIES” (CYTOMX THERAPEUTICS, INC., priority 2019, published 2022)

Assays:
dendritic cells (MoDCs) = experiment: Dendritic cell maturation markers by flow cytometry; assay type: cell-based, human; design: dose or concentration left out as unconfirmed; details: 48 hours, compared to untreated cells
Protocol: In this study, dendritic cells were cultured with […] anti-CD166 antibody conjugated to DM4 (CD166-DM4 ADC) or a dendritic cell maturation cocktail (Stem Cell Technology DC maturation kit (#10989)) for 48 hours. […] The MoDCs were then assessed for maturation by flow cytometric measurement of dendritic cell maturation markers CD80 (2D10 antibody, BioLegend), CD83 (HB15e antibody, BioLegend), HLA-DR (L243 antibody, BioLegend), and CD86 (IT2.2 antibody, BioLegend).

A375 cells = experiment: Immunogenic cell death markers in A375 cells; assay type: cell-based, human; details: A375, 48 hours; for secreted HMGB1: ELISA
Protocol: (§1) ICD can be measured by markers such as the expression of calreticulin on the surface of cancer cells and secretion of HMGB1. In this exemplary study, A375 cells (ATCC) derived from a human malignant melanoma were cultured in RPMI-1640™ medium with 10% (v/v) fetal bovine serum for 48 hours in the presence of the indicated amount of drug. HCC1806 cells (ATCC) derived from human breast carcinoma were cultured in DME medium for 48 hours in the presence of the indicated amount of drug. CT26 cells and CT26 huCD166 cells (CT26 cells expressing human CD166 polypeptide as discussed herein) were cultured in RPMI-1640™ medium with 10% (v/v) fetal bovine serum for 72 hours in the presence of the indicated amount of drug. Following incubation, calreticulin expression was detected by flow cytometry using a FITC conjugated calreticulin antibody (Novus Bio, clone 1G6A7; #NBP1-47518F). HMGB1 protein was detected by ELISA (Tecan HMGB1 ELISA kit, #NC9959947).

HCC1806 cells = experiment: Immunogenic cell death markers in HCC1806 cells; assay type: cell-based, human; details: HCC1806, 48 hours; for secreted HMGB1: ELISA
Protocol: as §1

CT26 cells = experiment: Calreticulin surface expression on CT26 cells; assay type: cell-based, mouse; details: CT26, 72 hours
Protocol: as §1

CT26 huCD166 cells = experiment: Calreticulin surface expression on CT26 huCD166 cells; assay type: cell-based, mouse; details: CT26 huCD166, 72 hours
Protocol: as §1

[1] = system: allogenic CD4+ T cells co-cultured with MoDCs; assay type: cell-based, human
activated human T cells = experiment: Cytotoxicity towards activated T cells (CellTiter-Glo)
[2] = system: human dendritic cells (MoDC); experiment: Cytotoxicity towards fully activated MoDC (CytoTox-Glo); details: 48 hours

## COc1cc2cc(c1Cl)N(C)C(=O)C[C@H](OC(=O)[C@H](C)N(C)C(=O)CCC(C)(C)S)[C@]1(C)O[C@H]1[C@H](C)[C@@H]1C[C@@](O)(NC(=O)O1)[C@H](OC)/C=C/C=C(\C)C2 [free DM4, DM4, reference compound]
Dendritic cells (MoDCs)
  expression of CD83: slightly increased
  expression of CD86: slightly increased
A375 cells
  expression of calreticulin (CRT): increased expression
  secreted HMGB1: increased amounts
HCC1806 cells
  expression of calreticulin (CRT): increased expression
  secreted HMGB1: increased amounts
CT26 cells
  surface expression of calreticulin (CRT): increased surface expression
CT26 huCD166 cells
  surface expression of calreticulin (CRT): increased surface expression

B1: anti-CD166 ADC (conjugate)
VH: QITLKESGPTLVKPTQTLTLTCTFSGFSLSTYGMGVGWIRQPPGKALEWLANIWWSEDKHYSPSLKSRLTITKDTSKNQVVLTITNVDPVDTATYYCVQIDYGNDYAFTYWGQGTLVTVSS
VL: DIVMTQSPLSLPVTPGEPASISCRSSKSLLHSNGITYLYWYLQKPGQSPQLLIYQMSNLASGVPDRFSGSGSGTDFTLKISRVEAEDVGVYYCAQNLELPYTFGQGTKLEIK
Dendritic cells (MoDCs)
  expression of CD83: slightly increased
  expression of CD86: slightly increased
[1]
  production of IL-2 by allogeneic T cells: slightly increase
A375 cells
  expression of calreticulin (CRT): increased expression
  secreted HMGB1: increased amounts
HCC1806 cells
  expression of calreticulin (CRT): increased expression
  secreted HMGB1: increased amounts
CT26 cells
  surface expression of calreticulin (CRT): increased surface expression
CT26 huCD166 cells
  surface expression of calreticulin (CRT): increased surface expression
Activated human T cells; 72 hours treatment
  cytotoxic activity towards activated T cells: minimal cytotoxic activity
Activated human T cells; activated T cells, 72 hours
  doses at which cytotoxicity was observed: above 10 nM
[2]
  cytotoxic activity towards MoDCs: minimal cytotoxic activity
[2]; fully activated MoDC
  doses at which cytotoxicity was observed: above 10 nM
